We go through 3 substances from patent US20200319204A1.

Assay [1] addresses semisynthetic H3K9me3 nucleosome (internal standard ladder) (human) (UniProt Q71DI3). The assay is described as follows: multi-standard ICeChIP-seq, six nucleosome ladders doped equimolar into mESC nuclei.
In assay [2] the target is unmodified nucleosome (internal standard) (human) (UniProt Q71DI3). The assay is described as follows: ICeChIP-qPCR, capture of barcoded nucleosome standards doped into mESC nucleosomes. (In qPCR the cycle at which signal appears reflects the starting amount.)
The target of assay [3] is semisynthetic H3K36me3 nucleosome (internal standard) (human) (UniProt Q71DI3). The description is as above.
Assay [4] has as its target semisynthetic H3K4me3 nucleosome (internal standard ladder) (human) (UniProt Q71DI3). The description is as above.
In assay [5] the target is semisynthetic H3K27me3 nucleosome (internal standard ladder) (human) (UniProt Q71DI3). The assay is described as follows: multi-standard ICeChIP-seq, six nucleosome ladders doped equimolar into mESC nuclei.

On to H3K27me3 antibody (Millipore 07-449), for which, in assay [1], the percent of the on-target signal stood at 26%.
For the substance H3K4me3 antibody (Active Motif AM39159), the values for the enrichment (internal standard, ICeChIP-qPCR) in assay [2], in assay [3] and in assay [4] were 1.9, 2.8 and 81, respectively. In assay [4], the apparent specificity (on target signal against H3K36me3 nucleosome) was found to be 30 fold.
For the substance “H3K9me3 antibody M309M3-A (Hattori et al., 2013)”, in assay [5], the percent of the on-target signal was determined as 10%.
